From US20160244497A1 (Amgen, published 2016)

Target: beta-klotho
Assay: cell-based or functional assay

B1: dually PEGylated FGF21 mutant E37C, R77C (ligand)
chain: MHPIPDSSPLLQFGGQVRQRYLYTDDAQQTEAHLEIRCDGTVGGAADQSPESLLQLKALKPGVIQILGVKTSRFLCQCPDGALYGSLHFDPEACSFRELLLEDGYNVYQSEAHGLPLHLPGNKSPHRDPAPRGPARFLPLPGLPPAPPEPPGILAPQPPDVGSSDPLSMVGPSQGRSPSYAS
modifications: 20 kDa methoxy-PEG-maleimide on Cys 37 and on Cys 77
  EC50, ELK-luciferase assay: 21 nM

B2: dually PEGylated FGF21 mutant E37C, R175C (ligand)
chain: MHPIPDSSPLLQFGGQVRQRYLYTDDAQQTEAHLEIRCDGTVGGAADQSPESLLQLKALKPGVIQILGVKTSRFLCQRPDGALYGSLHFDPEACSFRELLLEDGYNVYQSEAHGLPLHLPGNKSPHRDPAPRGPARFLPLPGLPPAPPEPPGILAPQPPDVGSSDPLSMVGPSQGCSPSYAS
modifications: 20 kDa methoxy-PEG-maleimide on Cys 37 and on Cys 175
  EC50, ELK-luciferase assay: 50 nM

B3: dually PEGylated FGF21 mutant E91C, G120C (ligand)
chain: MHPIPDSSPLLQFGGQVRQRYLYTDDAQQTEAHLEIREDGTVGGAADQSPESLLQLKALKPGVIQILGVKTSRFLCQRPDGALYGSLHFDPCACSFRELLLEDGYNVYQSEAHGLPLHLPCNKSPHRDPAPRGPARFLPLPGLPPAPPEPPGILAPQPPDVGSSDPLSMVGPSQGRSPSYAS
modifications: 20 kDa methoxy-PEG-maleimide on Cys 91 and on Cys 120
  EC50, ELK-luciferase assay: 54 nM

B4: dually PEGylated FGF21 mutant E91C, H125C (ligand)
chain: MHPIPDSSPLLQFGGQVRQRYLYTDDAQQTEAHLEIREDGTVGGAADQSPESLLQLKALKPGVIQILGVKTSRFLCQRPDGALYGSLHFDPCACSFRELLLEDGYNVYQSEAHGLPLHLPGNKSPCRDPAPRGPARFLPLPGLPPAPPEPPGILAPQPPDVGSSDPLSMVGPSQGRSPSYAS
modifications: 20 kDa methoxy-PEG-maleimide on Cys 91 and on Cys 125
  EC50, ELK-luciferase assay: 32 nM

B5: dually PEGylated FGF21 mutant R77C, G120C (ligand)
chain: MHPIPDSSPLLQFGGQVRQRYLYTDDAQQTEAHLEIREDGTVGGAADQSPESLLQLKALKPGVIQILGVKTSRFLCQCPDGALYGSLHFDPEACSFRELLLEDGYNVYQSEAHGLPLHLPCNKSPHRDPAPRGPARFLPLPGLPPAPPEPPGILAPQPPDVGSSDPLSMVGPSQGRSPSYAS
modifications: 20 kDa methoxy-PEG-maleimide on Cys 77 and on Cys 120
  EC50, ELK-luciferase assay: 34 nM

B6: dually PEGylated FGF21 mutant R77C, H125C (ligand)
chain: MHPIPDSSPLLQFGGQVRQRYLYTDDAQQTEAHLEIREDGTVGGAADQSPESLLQLKALKPGVIQILGVKTSRFLCQCPDGALYGSLHFDPEACSFRELLLEDGYNVYQSEAHGLPLHLPGNKSPCRDPAPRGPARFLPLPGLPPAPPEPPGILAPQPPDVGSSDPLSMVGPSQGRSPSYAS
modifications: 20 kDa methoxy-PEG-maleimide on Cys 77 and on Cys 125
  EC50, ELK-luciferase assay: 30 nM

B7: dually PEGylated FGF21 mutant E91C, R175C (ligand)
chain: MHPIPDSSPLLQFGGQVRQRYLYTDDAQQTEAHLEIREDGTVGGAADQSPESLLQLKALKPGVIQILGVKTSRFLCQRPDGALYGSLHFDPCACSFRELLLEDGYNVYQSEAHGLPLHLPGNKSPHRDPAPRGPARFLPLPGLPPAPPEPPGILAPQPPDVGSSDPLSMVGPSQGCSPSYAS
modifications: 20 kDa methoxy-PEG-maleimide on Cys 91 and on Cys 175
  EC50, ELK-luciferase assay: 46 nM

B8: dually PEGylated FGF21 mutant G120C, H125C (ligand)
chain: MHPIPDSSPLLQFGGQVRQRYLYTDDAQQTEAHLEIREDGTVGGAADQSPESLLQLKALKPGVIQILGVKTSRFLCQRPDGALYGSLHFDPEACSFRELLLEDGYNVYQSEAHGLPLHLPCNKSPCRDPAPRGPARFLPLPGLPPAPPEPPGILAPQPPDVGSSDPLSMVGPSQGRSPSYAS
modifications: 20 kDa methoxy-PEG-maleimide on Cys 120 and on Cys 125
  EC50, ELK-luciferase assay: 23 nM

B9: dually PEGylated FGF21 mutant R77C, E91C (ligand)
chain: MHPIPDSSPLLQFGGQVRQRYLYTDDAQQTEAHLEIREDGTVGGAADQSPESLLQLKALKPGVIQILGVKTSRFLCQCPDGALYGSLHFDPCACSFRELLLEDGYNVYQSEAHGLPLHLPGNKSPHRDPAPRGPARFLPLPGLPPAPPEPPGILAPQPPDVGSSDPLSMVGPSQGRSPSYAS
modifications: 20 kDa methoxy-PEG-maleimide on Cys 77 and on Cys 91
  EC50, ELK-luciferase assay: 26 nM

B10: dually PEGylated FGF21 mutant E37C, E91C (ligand)
chain: MHPIPDSSPLLQFGGQVRQRYLYTDDAQQTEAHLEIRCDGTVGGAADQSPESLLQLKALKPGVIQILGVKTSRFLCQRPDGALYGSLHFDPCACSFRELLLEDGYNVYQSEAHGLPLHLPGNKSPHRDPAPRGPARFLPLPGLPPAPPEPPGILAPQPPDVGSSDPLSMVGPSQGRSPSYAS
modifications: 20 kDa methoxy-PEG-maleimide on Cys 37 and on Cys 91
  EC50, ELK-luciferase assay: 36 nM
